Results: doi:10.1101/2023.01.30.525655 (bioRxiv, 2023)

B1: MDL2-6xHis (Arabidopsis thaliana MIF/D-DT-like protein 2, hexahistidine-tagged) (natural protein)
chain: PCLNLSTNVNLDGVDTSSILSEASSTVAKIIGKPENYVMIVLKGSVPMSFGGTEDPAAYGELVSIGGLNADVNKKLSAAVSAILETKLSVPKSRFFLKFYDTKGSFFGWNGATL
B2: MDL3-6xHis (Arabidopsis thaliana MIF/D-DT-like protein 3, hexahistidine-tagged) (natural protein, UniProt F4J4H3 1-112, looked up)
chain: MPCLYITTNVNFDGVNTDPFYSEVTKAVASIVGRPQNLVMVVLKGSVEIVFGGNKEAAAYAEIVSMGGITKQVKRELIATVGSILHTHFSIHPTRFIFKVFDINSLPLPSKL

Tests used:
[1] = biological target: MIF-6xHis (human macrophage migration inhibitory factor, hexahistidine-tagged) (human, UniProt P14174 2-115); test: cell-based or functional assay
[2] = biological target: RED-NHS-MIF-6xHis (human MIF-6xHis labelled with the RED-NHS dye) (human, UniProt P14174 2-115, RED-NHS dye (chemically labeled)); test: MST
SEC = biological target: the molecule itself; test: SEC
crystal structure = biological target: the molecule itself; test: crystal structure

Chain of RED-NHS-MIF-6xHis (human MIF-6xHis labelled with the RED-NHS dye) (P14174 2-115): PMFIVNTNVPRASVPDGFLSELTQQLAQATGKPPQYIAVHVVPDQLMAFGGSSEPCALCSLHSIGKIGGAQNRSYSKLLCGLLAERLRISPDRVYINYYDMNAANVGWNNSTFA
Chain of MIF-6xHis (human macrophage migration inhibitory factor, hexahistidine-tagged) (P14174 2-115): as above

| Binder | synergy in the CXCR4 yeast lacZ reporter, 10 µM MIF with 10 µM MDL2 [1] | Kd [2] | stoichiometry N (SEC) | stoichiometry N (crystal structure) |
| --- | --- | --- | --- | --- |
| B1 | ~3 fold over the MIF-MDL1 combination | < 5 µM | 3 | – |
| B2 | – | < 5 µM | – | 3 |
